In patent publication US20100330095A1 (U3 PHARMA, published 2010):

T1: human receptor tyrosine kinase AXL transcript variant 1 (human, UniProt P30530 26-894)
T1 construct: Overexpressed on RatI-AXL cl.2 and NIH3T3-AXL cl.7 fibroblasts (pLXSN-hAXL); endogenous on human cancer cell lines and HUVEC in the functional assays; also called hAXL; human AXL
T1 sequence: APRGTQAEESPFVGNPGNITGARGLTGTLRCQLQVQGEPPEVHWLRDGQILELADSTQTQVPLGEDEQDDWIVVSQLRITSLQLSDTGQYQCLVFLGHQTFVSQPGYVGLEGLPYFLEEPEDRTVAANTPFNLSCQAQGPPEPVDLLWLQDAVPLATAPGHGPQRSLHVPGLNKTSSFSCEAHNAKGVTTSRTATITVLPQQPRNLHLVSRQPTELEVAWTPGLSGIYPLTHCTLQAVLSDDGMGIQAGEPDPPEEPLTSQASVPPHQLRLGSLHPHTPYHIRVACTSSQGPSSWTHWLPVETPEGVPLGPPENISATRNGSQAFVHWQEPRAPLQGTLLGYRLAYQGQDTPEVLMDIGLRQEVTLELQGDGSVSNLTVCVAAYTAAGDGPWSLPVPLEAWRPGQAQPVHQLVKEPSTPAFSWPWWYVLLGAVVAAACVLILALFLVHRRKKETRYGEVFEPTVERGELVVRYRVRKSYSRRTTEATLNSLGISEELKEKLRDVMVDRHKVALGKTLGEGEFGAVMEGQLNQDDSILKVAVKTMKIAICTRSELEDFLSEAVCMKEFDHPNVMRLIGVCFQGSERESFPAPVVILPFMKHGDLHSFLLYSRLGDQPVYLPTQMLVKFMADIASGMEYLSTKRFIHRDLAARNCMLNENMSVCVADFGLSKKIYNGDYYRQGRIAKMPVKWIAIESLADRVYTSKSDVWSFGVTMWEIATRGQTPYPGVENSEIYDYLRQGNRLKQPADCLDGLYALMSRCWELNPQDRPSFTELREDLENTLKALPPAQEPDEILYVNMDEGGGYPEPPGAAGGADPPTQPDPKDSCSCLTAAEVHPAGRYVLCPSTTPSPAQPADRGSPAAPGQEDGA

B1: ch11D5-IgG2 (antibody, V domains shown)
VH: EVQLQESGPGLVKPSQSLSLTCSVTGYSITSNYWGWIRKFPGNKMEWIGHITNSGNTTYNPSLKSRISISRDTSRNQFFLQLNSVTTEDTATYYCAKGAFDYWGQGVMVTVSS
VL: DIQMTQSPSSMSTSLGDRVTITCRASQDIGNYLSWFQQKVGKSPRRMIYGAIKLAVGVPSRFSGSRSGSDYSLTISSLESEDMAIYYCLQYIQFPLTFGSGTKLELKR
notes: chimeric rat/human IgG2 kappa, expressed in HEK 293 cells; also called chn11D5 IgG2
B2: ch11B7-IgG2 (antibody, V domains shown)
VH: EVQLQESGPGLVKPSQSLSLTCSVTGYSITSNYWGWIRKFPGDKMEWMGYITYSGSTSYNPSLKSRISITRDTSKNQFFLQLNSVTSEDTATYYCAITTFYYWGQGVMVTVSS
VL: DIQMTQAPSSLPASLGDRVTITCRASQDIGNYLRWFQQKPGKSPRLMISGATNLAAGVPSRFSGSRSGSDYSLTISSLESEDMADYYCLQSKESPWTFGGGTKLELKR
notes: chimeric rat/human IgG2 kappa, expressed in HEK 293 cells; also called chn11B7 IgG2

Target: T1, human receptor tyrosine kinase AXL …
Experiment: FACS Scatchard (apparent KD) on human AXL overexpressing NIH3T3 cells
Protocol: Human AXL overexpression NIH3T3 cells were harvested by incubation with 10 mM EDTA in PBS and resuspended at 6 million cells per ml in FACS buffer (PBS pH 7.4, 3% FCS, 0.1% NaN₃). […] Antibody binding was allowed to proceed for 2 hours on ice. Then, cells were washed twice with 250 μl FACS buffer per well, and resuspended in 200 μl of secondary antibody (anti-rat-PE; Jackson) diluted 1:50 in FACS buffer. After 45 minutes of incubation, cells were again washed twice in FACS buffer and resuspended in […] PBS for FACS analysis. Analysis was carried out on a Beckman-Coulter FACS FC500. To determine the apparent affinity constant KDapp, mean fluorescence values were plotted against the ratio of mean fluorescence and the corresponding antibody concentration ([M]).

Kd | Binder
0.9 nM | B1
0.6 nM | B2
